The target of this assay is PI-3-kinase (human (endogenous in Caco2)) (UniProt P42338). Put plainly: co-IP; as the basal co-IP, but Caco2 Dsg2^WT cells incubated for 24h with TNFα (100 ng/ml) before lysis; Dsg2/PI-3-kinase ratio of optical densities, fold of controls, n=4.
Chain of UniProt P42338 (P42338 whole entry): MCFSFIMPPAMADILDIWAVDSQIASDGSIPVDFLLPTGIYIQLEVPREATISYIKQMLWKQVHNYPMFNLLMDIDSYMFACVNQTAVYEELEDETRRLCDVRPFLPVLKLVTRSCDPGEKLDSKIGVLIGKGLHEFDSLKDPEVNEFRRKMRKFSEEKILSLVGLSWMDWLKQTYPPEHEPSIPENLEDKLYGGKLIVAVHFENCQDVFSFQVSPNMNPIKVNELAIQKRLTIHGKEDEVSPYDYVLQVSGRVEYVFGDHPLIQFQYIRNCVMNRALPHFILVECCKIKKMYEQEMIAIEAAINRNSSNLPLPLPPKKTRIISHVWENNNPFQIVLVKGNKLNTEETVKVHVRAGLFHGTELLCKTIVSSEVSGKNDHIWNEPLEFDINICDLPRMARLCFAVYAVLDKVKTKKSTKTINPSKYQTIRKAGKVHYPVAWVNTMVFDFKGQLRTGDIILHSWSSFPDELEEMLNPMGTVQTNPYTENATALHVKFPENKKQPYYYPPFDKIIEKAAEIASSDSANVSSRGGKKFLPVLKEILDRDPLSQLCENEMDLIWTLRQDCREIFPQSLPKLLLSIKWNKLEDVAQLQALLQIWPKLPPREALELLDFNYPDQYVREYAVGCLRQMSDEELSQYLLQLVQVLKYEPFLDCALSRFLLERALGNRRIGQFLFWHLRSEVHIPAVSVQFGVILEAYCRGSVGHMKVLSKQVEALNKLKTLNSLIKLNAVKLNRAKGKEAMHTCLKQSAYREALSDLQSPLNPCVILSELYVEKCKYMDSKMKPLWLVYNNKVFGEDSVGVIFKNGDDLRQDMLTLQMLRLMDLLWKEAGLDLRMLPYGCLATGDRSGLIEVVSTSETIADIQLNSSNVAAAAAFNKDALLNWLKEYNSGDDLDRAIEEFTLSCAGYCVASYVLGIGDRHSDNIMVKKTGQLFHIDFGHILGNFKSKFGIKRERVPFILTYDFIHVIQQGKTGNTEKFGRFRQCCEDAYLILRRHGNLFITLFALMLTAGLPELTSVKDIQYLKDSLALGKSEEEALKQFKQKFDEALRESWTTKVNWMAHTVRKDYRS

“Desmoglein 2 (from UniProt Q14126 50-1118) (natural protein)”: the fold of controls (Dsg2/PI-3-kinase ratio in the co-IP, after TNFα) (fold of controls) is 0.34.

The record behind these values is paper PMC8514949.
